Reference: patent US20040091992A1

Molecular target: Myc tagged Cdc42HsV12 (constitutively active, expressed in microinjected cells) (UniProt P60953)
Experiment: cell-based or functional assay

Chain of Myc tagged Cdc42HsV12 (constitutively active, expressed in microinjected cells) (P60953 other isoform, or with tags, fused parts or gaps): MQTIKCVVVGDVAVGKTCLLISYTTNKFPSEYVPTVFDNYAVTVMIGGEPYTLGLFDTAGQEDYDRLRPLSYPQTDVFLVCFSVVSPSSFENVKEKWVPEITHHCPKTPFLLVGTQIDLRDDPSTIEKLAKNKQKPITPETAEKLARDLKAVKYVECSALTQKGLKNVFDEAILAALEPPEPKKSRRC

HA tagged PAK4 (wild type, expressed in cells from the SRalpha vector) (from UniProt O96013 1-591)
sustained formation of actin enriched filopodia protrusions in co-injected PAE cells (% of the injected cells): > 70
